Experimental data: patent publication US20130266958A1 (INTERNATIONAL INSTITUTE OF CANCER IMMUNOLOGY, published 2013)

Assays:
Experiment in all cases: HPLC folding test (Superdex 200), HLA class II monomer protein with 50-fold molar peptide, against solvent only
[1] = molecular target: T1, HLA class II monomer protein DRB1* 0405 (human)
T1 construct: Soluble MHC class II monomer protein used in the HPLC folding test
Method: (§1) After reacting the solution at 37° C., the retention time was analyzed using HPLC.
(§2) As a folding buffer, a 10% amount of a mixed solution of an HLA class II monomer protein and a peptide was added. The amount of the folding buffer added was calculated using the following calculation equation.
(§3) To a glass vial charged with an HLA class II monomer protein, a peptide solution and a folding buffer were added in a calculated amount, and the mixture was allowed to stand at 37° C. overnight. HPLC (Waters 2695 Separation Module) was started, and a Seperdex 200 column was equilibrated with an equilibrating buffer. To all samples, 300 μL of the equilibrate buffer was added and well mixed, and a 100 μL portion of the mixture was used as a sample injection volume to calculate the retention time. Analysis time was 50 minutes. The criterion for the folding of an HLA class II monomer protein with a peptide is a shift of the retention time of not less than 0.1 minute as compared with a control (solvent only).

[2] = molecular target: T2, HLA class II monomer protein DRB1* 0101 (human)
T2 construct: Soluble MHC class II monomer protein used in the HPLC folding test
Method: as §1, §2, §3

[3] = molecular target: T3, HLA class II monomer protein DRB1* 1502 (human)
T3 construct: Soluble MHC class II monomer protein used in the HPLC folding test; also called HLA-DRB1* 1502 molecule
Method: as §1, §2, §3

[4] = molecular target: T4, HLA class II monomer protein DRB4* 0101 (human)
T4 construct: Soluble MHC class II monomer protein used in the HPLC folding test
Method: as §1, §2, §3

[5] = molecular target: T5, HLA class II monomer protein DRB1* 0901 (human)
T5 construct: Soluble MHC class II monomer protein used in the HPLC folding test; also called HLA-DRB1* 0901 molecule
Method: as §1, §2, §3

[6] = molecular target: T6, HLA class II monomer protein DRB1* 1501 (human)
T6 construct: Soluble MHC class II monomer protein used in the HPLC folding test; also called HLA-DRB1* 1501 molecule
Method: as §1, §2, §3

[7] = molecular target: T7, HLA class II monomer protein DRB1* 0803 (human)
T7 construct: Soluble MHC class II monomer protein used in the HPLC folding test; also called HLA-DRB1* 0803 molecule
Method: as §1, §2, §3

Measured: degree of shift of the retention time

B1: WT1-332 (a peptide consisting of the amino acid sequence depicted in SEQ ID NO:2) (peptide)
peptide: KRYFKLSHLQMHSRKH
notes: Synthetic peptide; part of human WT1 protein; also called WT1 peptide
≥ 0.1 min: all assays above
